Assay results published in patent US20230031280A1, “GLP-2 FUSION POLYPEPTIDES AND USES FOR TREATING AND PREVENTING GASTROINTESTINAL CONDITIONS” (SHIRE-NPS PHARMACEUTICALS, INC., priority 2017, published 2023).

Columns and labels:
[1] = Cynomolgus monkey pharmacokinetic study; assay type: in vivo, cynomolgus monkeys; settings: 0.75 mg/kg
Experimental: Pharmacokinetics studies of teduglutide, GLP-2 Peptibody B and GLP-2 Peptibody K were formed in cynomolgus monkeys with citrulline assayed as a biomarker of GLP-2 concentration. In the study, 12.5 nmol/kg teduglutide was administered subcutaneously to a group of 6 male cynomolgus monkeys at day 1. Then for one set of 2 monkeys, 25 nmol/kg GLP-2 Peptibody B was administered intravenously at day 7, day 21, day 28, day 35, and day 42. For another set of 3 monkeys, 25 nmol/kg GLP-2 Peptibody B was administered subcutaneously at day 7, day 21, day 28, day 35, and day 42. For another set of monkeys, 5 nmol/kg GLP-2 Peptibody K was administered intravenously (2 monkeys) and subcutaneously (3 monkeys) at day 7, day 21, day 28, day 35, and day 42. For another set of monkeys, 25 nmol/kg GLP-2 Peptibody K was administered subcutaneously (3 monkeys) and intravenously (2 monkeys) at day 7, day 21, day 28, day 35, and day 42.

[2] = NanoDSF melting temperature / thermal stability; assay type: physicochemical
Experimental: Each of the GLP-2 peptibodies was tested by determining melting temperature with nanodifferential scanning fluorimetry (NanoDSF). NanoDSF is a measurement of protein stability over a range of temperatures, with a temperature ramp employed. The stability of tryptophan is measured by fluorescence, as reflected in a ratio of fluorescence at 350 nm to fluorescence at 330 nm. From the assay, one or more melting temperatures are determined. Because a protein in a certain state is understood to have a melting temperature, the number of melting temperatures observed reflects the number of different states.
(§1) Stability analysis was then performed using SEC-MALS and NanoDSF. For SEC-MALS, a Sepax Zenix C-150 column was used. The mobile phase buffer was 1× PBS with a final concentration of 400 mM NaCl. The flow rate was 0.8 mL per minute. 20 micrograms of total protein was injected. For NanoDSF, 10 microliters of sample was used, without normalization of the samples.
as §1

[3] = Rat pharmacokinetic comparability with/without C-terminal lysine; assay type: in vivo, Sprague-Dawley rats; settings: in vivo, 1 mg/kg
Experimental: 1 mg/kg of total GLP-2 peptibody K protein was administered subcutaneously to one group of six male Sprague-Dawley rats. 1 mg/kg of total GLP-2 peptibody K274 protein was administered intravenously to another group of six male Sprague-Dawley rats. 1 mg/kg of total GLP-2 peptibody B protein was administered subcutaneously to a third group of five male Sprague-Dawley rats. 1 mg/kg of total GLP-2 peptibody B264 protein was administered subcutaneously to a fourth group of five male Sprague-Dawley rats.
For all of the above groups, plasma samples were taken pre-dose, and at the following time points post-dose: 5 minutes (day 1), 10 minutes (day 1), 20 minutes (day 1), 30 minutes (day 1), 1 hour (day 1), 2 hours (day 1), 6 hours (day 1), 24 hours (day 2), 48 hours (day 3), 72 hours (day 4), 120 hours (day 6), 168 hours (day 8), 240 hours (day 11), and 336 hours (day 15).
Tables showing the pharmacokinetic data comparing intravenously administered GLP-2 peptibody K and GLP-2 peptibody K274 are in FIG. 10B. Tables showing the pharmacokinetic data comparing subcutaneously administered GLP-2 peptibody K and GL-2 peptibody K274 are in FIG. 10C.

[4] = SEC-MALS (Sepax Zenix C-150) peak distribution; assay type: physicochemical
Experimental: A SEC-MALS assay was performed to determine the primary state (main peak) and its molecular weight. […] The GLP-2 peptibody O (albumin fusion) eluted at a molecular weight indicative of a monomer.
as §1, §1

GLP-2 peptibody K: GLP-2[A2G]-GGGGSGGGGSGGGGS linker-IgG1 Fc (LALA) with C-terminal lysine; SEQ ID NO: 10
CL ([1]; MDPK, intravenous): 19.3 mL/day/kg | Q ([1]; MDPK, intravenous): 27.0 mL/day/kg | Vc ([1]; MDPK, intravenous): 36.5 mL/kg | Vt ([1]; MDPK, intravenous): 33.9 mL/kg | CL/F ([1]; MDPK, subcutaneous): 32.4 mL/day/kg | Vc ([1]; MDPK, subcutaneous): 111 mL/kg | association constant (ka) ([1]; MDPK, subcutaneous): 1.70 day⁻¹ | CL ([1]; SDPK, intravenous): 17.2 mL/day/kg | Q ([1]; SDPK, intravenous): 29.1 mL/day/kg | Vc ([1]; SDPK, intravenous): 32.3 mL/kg | Vt ([1]; SDPK, intravenous): 32.9 mL/kg | CL/F ([1]; SDPK, subcutaneous): 33.0 mL/day/kg | Vc ([1]; SDPK, subcutaneous): 107 mL/kg | association constant (ka) ([1]; SDPK, subcutaneous): 1.56 day⁻¹ | NanoDSF melting temperature 1 ([2]; first transition): 1 = 67.5 °C | NanoDSF melting temperature 2 ([2]; second transition): 2 = 79.7 °C | pharmacokinetic comparability of K and K274 [3]: identical from a pharmacokinetic point of view | SEC-MALS Zenix C-150 main peak [4]: 80.2% main peak, 149,900 g/mol
